From patent publication US11491212

Experiments:
[1] = molecular target: Factor X (FX), P00742
[2] = molecular target: Factor X (FX), active site titrated and DFP/EGR-cmk treated zymogen, P00742
[3] = molecular target: Factor X, P00742
[4] = molecular target: plasma purified human AT-III (antithrombin III), in complex with low molecular weight heparin
[5] = molecular target: Antithrombin III (plasma purified human AT-III) in complex with unfractionated heparin; assay: ratio of K0.5 of variant to K0.5 of Catalyst Biosciences WT FIXa, AT-III/UFH inhibition assay
[6] = molecular target: Factor VIIIa (FVIIIa), P00451
Factor VIIIa (FVIIIa), P00451, sequence (P00451 other isoform, or with tags, fused parts or gaps): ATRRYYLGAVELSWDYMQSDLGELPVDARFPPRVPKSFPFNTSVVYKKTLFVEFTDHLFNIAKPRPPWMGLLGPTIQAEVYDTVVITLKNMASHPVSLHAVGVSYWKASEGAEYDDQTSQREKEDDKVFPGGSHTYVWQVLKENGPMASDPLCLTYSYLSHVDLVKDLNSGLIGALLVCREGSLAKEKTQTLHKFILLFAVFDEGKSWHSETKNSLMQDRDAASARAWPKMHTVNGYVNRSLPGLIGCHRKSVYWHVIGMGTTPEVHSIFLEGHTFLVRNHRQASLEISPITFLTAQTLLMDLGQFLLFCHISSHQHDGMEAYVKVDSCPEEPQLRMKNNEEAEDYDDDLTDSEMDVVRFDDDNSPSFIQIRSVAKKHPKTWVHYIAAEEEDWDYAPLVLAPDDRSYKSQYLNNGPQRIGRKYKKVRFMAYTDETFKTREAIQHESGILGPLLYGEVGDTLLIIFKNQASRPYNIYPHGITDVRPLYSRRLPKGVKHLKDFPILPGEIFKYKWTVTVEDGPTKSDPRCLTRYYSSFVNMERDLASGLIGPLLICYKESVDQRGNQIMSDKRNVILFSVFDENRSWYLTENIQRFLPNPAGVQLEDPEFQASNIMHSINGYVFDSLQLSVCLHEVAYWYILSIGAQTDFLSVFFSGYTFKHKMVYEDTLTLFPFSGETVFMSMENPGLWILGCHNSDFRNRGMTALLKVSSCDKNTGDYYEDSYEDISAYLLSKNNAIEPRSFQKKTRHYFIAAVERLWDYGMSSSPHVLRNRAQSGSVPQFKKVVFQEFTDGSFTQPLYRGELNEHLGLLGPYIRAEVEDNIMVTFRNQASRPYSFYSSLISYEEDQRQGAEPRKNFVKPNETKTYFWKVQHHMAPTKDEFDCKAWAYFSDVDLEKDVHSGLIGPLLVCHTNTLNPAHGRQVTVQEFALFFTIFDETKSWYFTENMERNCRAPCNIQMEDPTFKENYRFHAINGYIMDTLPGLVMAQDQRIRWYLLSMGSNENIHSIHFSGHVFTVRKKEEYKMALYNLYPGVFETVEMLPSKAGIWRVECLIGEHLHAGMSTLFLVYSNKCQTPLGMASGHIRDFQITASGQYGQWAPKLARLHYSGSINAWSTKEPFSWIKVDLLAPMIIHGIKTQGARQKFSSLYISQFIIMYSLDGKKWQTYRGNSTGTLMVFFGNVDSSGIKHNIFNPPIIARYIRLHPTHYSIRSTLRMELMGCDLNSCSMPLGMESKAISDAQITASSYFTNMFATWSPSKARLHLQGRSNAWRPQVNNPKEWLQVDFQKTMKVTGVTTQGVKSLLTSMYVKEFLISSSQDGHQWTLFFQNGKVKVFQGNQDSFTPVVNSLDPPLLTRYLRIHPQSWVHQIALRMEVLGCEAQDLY

Factor X (FX), active site titrated and DFP/EGR-cmk treated zymogen, P00742, sequence (P00742 whole entry, looked up): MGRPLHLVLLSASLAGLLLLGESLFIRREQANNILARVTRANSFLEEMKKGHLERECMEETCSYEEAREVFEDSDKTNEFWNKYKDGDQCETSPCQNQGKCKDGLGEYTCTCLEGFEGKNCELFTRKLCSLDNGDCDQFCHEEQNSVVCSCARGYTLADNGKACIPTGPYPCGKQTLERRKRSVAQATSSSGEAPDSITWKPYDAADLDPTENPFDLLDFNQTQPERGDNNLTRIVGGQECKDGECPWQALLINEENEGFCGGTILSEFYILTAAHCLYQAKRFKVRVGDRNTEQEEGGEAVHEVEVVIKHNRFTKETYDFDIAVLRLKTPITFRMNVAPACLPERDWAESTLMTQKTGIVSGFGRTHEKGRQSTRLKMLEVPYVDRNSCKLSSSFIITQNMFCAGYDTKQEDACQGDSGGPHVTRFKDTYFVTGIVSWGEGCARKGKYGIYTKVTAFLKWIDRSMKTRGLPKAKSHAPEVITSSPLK
Factor X (FX), P00742, sequence (P00742 whole entry, looked up): as above
Factor X, P00742, sequence (P00742 whole entry, looked up): as above

B1: FIXa-K247N/N249S/R338E/T343R/R403E (protein)
chain 1: not shown
chain 2: not shown
For B1, the kcat [1] was 14.6 s⁻¹, the “catalytic activity (kcat/KM for activation of FX)” value (from here on “catalytic activity”) [2] was “improved activity when combined with other mutations” and the KM [3] was 0.0263 µM.

B2: FIXa-K293A/R338A/R403A (protein)
chain 1: not shown
chain 2: not shown
Work on B2 yielded a KM [1] of 0.0654 µM, a K0.5-mut/K0.5-wt (against Catalyst Biosciences WT FIXa), AT-III/LMWH [4] of 16.9 fold and a KM of FX activation by FIXa in the Xase complex (FVIIIa, PC/PS vesicles, Ca2+); fluorogenic Spectrafluor FXa assay [3] of 0.0654 µM.

B3: FIXa-K228N/K247N/N249S (protein)
chain 1: not shown
chain 2: not shown
In the case of B3, the “% of WT kcat/KM (against Catalyst Biosciences WT FIXa)” value [1] is reported as 83%, the kcat/KM for activation of FX by FIXa in the Xase complex (FVIIIa, PC/PS vesicles, Ca2+), fluorogenic Spectrafluor FXa read-out [1] is reported as 3.8e+07 M⁻¹ s⁻¹ and the “catalytic activity” value [2] is reported as “demonstrated close to wild-type activity”.

B4: FIXa-R318Y/R338E/T343R (activated CB 2679d, FIX of SEQ ID NO:394) (protein)
chain 1: not shown
chain 2: not shown
For B4, the “catalytic efficiency for the activation of FX” value [2] was “approximately 3-fold enhanced catalytic efficiency for the activation of FX”.

B5: FIXa-R318Y/R338E/T343R/E410N (protein)
chain 1: not shown
chain 2: not shown
In the case of B5, the KM [1] is reported as 0.0164 µM, the “catalytic activity” value [2] is reported as “displayed some of the greatest increases in catalytic activity” and the kcat/KM [3] is reported as 3.4e+08 M⁻¹ s⁻¹.

B6: FIXa-R318Y/R338E/E410N (protein)
chain 1: not shown
chain 2: not shown
For B6, the “catalytic activity” value [2] was “displayed some of the greatest increases in catalytic activity”.

B7: FIXa-Y155F/R318Y/T343R/R403E/E410N (protein)
chain 1: not shown
chain 2: not shown
B7 gave a KM [1] of 0.034 µM and a kcat/KM [3] of 2.6e+08 M⁻¹ s⁻¹.

B8: FIXa variant R318Y/R338E/E410N/T412V (protein)
chain 1: not shown
chain 2: not shown
Work on B8 yielded a K0.5-mut/K0.5-wt [5] of over 517.

B9: FIXa-R338E/T343R/R403E/E410N (protein)
chain 1: not shown
chain 2: not shown
B9 was tested, and the KM [1] was 0.0347 µM and the kcat/KM [3] was 3e+08 M⁻¹ s⁻¹.

B10: FIXa-K293E/R338E/R403E (protein)
chain 1: not shown
chain 2: not shown
B10 was tested, and the KM [1] was 0.05 µM, the K0.5-mut/K0.5-wt (against Catalyst Biosciences WT FIXa), AT-III/LMWH [4] was 14.2 fold and the KM of FX activation by FIXa in the Xase complex (FVIIIa, PC/PS vesicles, Ca2+); fluorogenic Spectrafluor FXa assay [3] was 0.05 µM.

B11: FIX of SEQ ID NO:394, with the replacements R318Y/R338E/T343R (activated form, FIXa) (protein)
chain 1: not shown
chain 2: not shown
In the case of B11, the Cofactor-Dependent Indirect kcat/KM (M-1s-1), FX activation [1] is reported as 1.2e+08 M⁻¹ s⁻¹, the Fold Increase over BeneFIX FIX (kcat/KM, FX activation) [1] is reported as 2.8 fold and the Pro-coagulant Activity, Fold Change (in vitro) [1] is reported as 2.8 fold. It also gave an FIX activity (mean) at 5 ng/mL FVIIIa, Test 1 [6] of 278, an FIX activity (mean) at 10 ng/mL FVIIIa, Test 2 [6] of 479 and an FIX activity (mean) at 15 ng/mL FVIIIa, Test 3 [6] of 622. It also gave a Fold increase after FVIIIa addition (5 ng/mL), Test 1 [6] of 225 fold, a Fold increase after FVIIIa addition (10 ng/mL), Test 2 [6] of 384 fold and a Fold increase after FVIIIa addition (15 ng/mL), Test 3 [6] of 486 fold. The Ratio (CB2679d vs BeneFIX) of FIX activity at 5 ng/mL FVIIIa [6] was 2, the Ratio (CB2679d vs BeneFIX) of FIX activity at 10 ng/mL FVIIIa [6] was 2 and the Ratio (CB2679d vs BeneFIX) of FIX activity at 15 ng/mL FVIIIa [6] was 2.

B12: FIXa-K247N/N249S/R318Y/R338E/T343R/R403E/E410N (protein)
chain 1: not shown
chain 2: not shown
B12 was tested, and the “catalytic activity” value [2] was “improved activity when combined with other mutations” and the kcat/KM [3] was 3.8e+08 M⁻¹ s⁻¹.
